In the nanobody polyreactivity screen of Harvey et al. (2022):

Assay: yeast display, Sf9 membrane polyspecificity reagent, FACS + sequencing; frameworks hold sequencing errors
Procedure, shortened: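 Nanobodies came from a synthetic yeast display library in Saccharomyces cerevisiae BJ5465, induced with galactose for 36–48 hours and stained for 1 hour at 4 °C with 10% biotinylated, detergent-solubilized Sf9 membrane reagent. Cells were enriched on streptavidin microbeads and then FACS-sorted, with low and high (top ~1%) gates set on anti-HA fluorescence for expression and streptavidin fluorescence for reagent binding. Each polyreactivity label reflects the gate a clone came from. Genes were amplified by colony PCR, sequenced by MiSeq 2 × 250 and filtered by CDR length.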

Row | Sequence | polyreactivity (PSR sort gate)
1 | QVQLVESGGGLVQAGGSLRLSCAASGRIFEWYAMGWYRQAPGKEREFVARITIGGRTYYADSVKGRFTISRDNAKNTVYFQMNSVKREDTAVYYCNAPYAWARPYIVSSTYDYWGQGTQVTVSS | high polyreactivity
2 | QVQLVESGGGLVQAGGSLRLSCAASGSIFYFNAMGWYRQAPGKERELVAAISTSGGSTYADSVKGRFTISRDNAKNTVYLQMNSLKPEDTAVYYCAADFLTSRSRTFDYWGQGTQVTVSS | low polyreactivity
3 | QVQLVESGGGLVQAGGSLRLSCAASGSIFVYYAMGWYRQAPGKERELVAAISQRGGRTYYADSVKGRFTISRDNAKNTVYLQMNSLKPEDTAVYYCAARAWTRSVPYGFYYWGQGTQVTVSS | high polyreactivity
4 | QVQLVESGGGLVQAGGSLRLSCAASGFTFYYYAMGWYRQAPRKERQLVAAFSWSGGSTYYADSVKGRFTISRDYAKNTVYLQMNRLKPVDTAVYYCNAYPGYRSRSDYGYWGQGTQVTVSS | high polyreactivity
5 | QLQHVESGGGLVQAGGSLRLSCAASGGIFGIYAMGWYRQAPGKESELVAAISRRGGSTYFADSVKGRFTISRDNAKNTVYLQMKSLKPADTAVYYCAAVRRGVNTSFGYRPLNYWGQGTEVTVSS | high polyreactivity
6 | QVQIVESGGGLVQAGGSLRLSCAASGFIFNIYAMGWYRQAPGKERELVAAITFSGGSTYYADSVKGRFTISRDNAKNTVYFQMNSLKPEDTAVYYCAADYLSEYTTYDYWGQGTQVTVSS | low polyreactivity
7 | QVHLVESGGGLVQSGGSLRLSCAASGTIFEANVKGWYRQAPGKERELVATISSDGTSTYYADSVKGRFTISRDNAKYTVYLQMNSRKPEDTAVYYCNADAGAGWYPDSKYAYDYWGQGTLVTVSS | low polyreactivity
8 | QVQLVESGGGLFQAGGSLRLSCAASGFIFLVNAMGWYRPAPGKERELVAAISKSTGGTYYADSVKGRFTISRDNAKNTVYLQMYSLKPEDTAVYSCAADEVYPVQRDMDYWGQGTQETVSS | low polyreactivity
9 | QVQLVESGGGLVQAGGSLRLSCASSGLISRRNAMGWYRQAPGKERELVAAISTGSSTNYADSVKGRFTISRDNAKNTVYLQMNSLKPEDTAVYYCAATQYWWSTLGIRDDYWGQGTQVTVSS | low polyreactivity
10 | QVQLVESGGGLVQAGGSLRLSCAASGITFSYYALGWYRQAPGKERELVAVISAGGGTTYYADSVKGRFTISRDNAKNTVYLQMNSLKPEDTAVYYCAVKIVVWWGEYDYWGQGTQVTVSS | high polyreactivity
11 | QVQLVETGGGLVQAGGSLRLSCAASGNTFHSNAMGCYSQAPGKERELVAAITPSDGDPYYADSVKGRFTISRDNAKNTVYLQMNSLKPEDTAVYYCAAEDDPGEYEYWGQGTQVTVSS | low polyreactivity
12 | QLQLVESGGGLVQAGGSLRLSCADSASIFTCYAMGWDRQAPGKESELVARINVSAGITYYADSVMGRFTISRDNAKNPVYLQMNSLNPEDTAVYYCAATGLRRPKHNYWGQGPQVTVSS | low polyreactivity
13 | QVQLVESGGGLVQAGGSLRLSCAASGIIFYLYTKGWYRQAPGKERELVAAITRGGSTYYADSVKGRFTISRDNAKKTVYLQMNSLKPEDTAVYYCAAKHGPGYRRWYDYWGQGTQVTVSS | high polyreactivity
14 | QVQLVESGGGLVQAGGSLRLSCAASGRTFNRYAMGRYRQAPGKERELVAVITSDGRRNYADSVKGRFTISRDKAKNTVYFQINSLKPEDTAVSYCNKRSALSFVYDFDYWGQGTQVTVSS | low polyreactivity
15 | QVQLVESRGGLVQAGGSLSLSCAASGRIFYIYDMGWYRQAPGKERELVAAISTSGGSTFYADSVKGRFTISRDNAKNTVYLQMNSLKPEDTAVYYCAARFRYYGSEYDYWGQGTQVSVSS | low polyreactivity
16 | QVQLVESGGGLVQAGGSLRLSCAAYGFIYRYYAMGWNRQAPGKERELVPGISVSGGGTYYADSVKGRFTISRDNAKNTVNLQMNSLKPEDTAVYYCAAERTFLYWAYDYWGQGTQVNVSS | high polyreactivity
17 | QVQLVESGGGLVQAGGSLRLSCAAYGSIFRLYAIGWSRQAPGKDRELVAAISSVGRTYYAYSVKGRFTISRDNAKNTVYLQMNSLKPEDSAVYYCAARPYKFARYDYWGQGTQVTVSS | high polyreactivity
18 | QVQLVESGGGLVQAGGSLRLSCAASGSTFVVNAMGWYRQAPGKERELVAAITQSGGSTFYADSVKGRFTISRDNAKNTVYLQINSLKPEDTAVYYWGQCTQVTVSS | low polyreactivity
19 | QVQLVESGGGLVQAAGILRLSCAASGFIVVRNAMGWYRQAPGKERELVAAISAIGSSTYYADSVKGRFTISRDNAKNTVYLQLNSLKPEDTAVYYCAASGSRVSERSPTRLDYYCGQGTQVTVSS | high polyreactivity
20 | QVQLVESGGGLVQAGCSLRLSCAASGRIFDTYAKGWYRQAPGKERELVATITAGTSTNYADSVKGRFTISRDNAKNTVYLKMNCLKPEDTAVYYCAASKYGSPPYRSYVYWGQGTQVSVSS | high polyreactivity
21 | QVQLVESGGGLVQAGGSHRLSCAASGRTFPFYAMGWYRQAPGTERELVADITSSGGSTYYADSVKGRFTISRDNAKNTVYLQMNSLKPEDSAVYYCAADPIDISYWEFDYWGQGTQVTVSS | low polyreactivity
22 | QVQLVESAGGLVQAGGILRLSCAASGSTFDSYGMGWYRQAPGKERELVASISVSGGGTYYADSVKGRFTISRDNAKNTVYLQMNSLKPEDTAVYYCNARYGNESQGWEDYWGQGTQVTVSS | low polyreactivity
